Measured values published in US20260022364A1, “ERT2 MUTANTS, INDUCIBLE CELL DEATH SYSTEMS, AND USES THEREOF” (Senti Biosciences, Inc., priority 2023, published 2026).

Assays:
NK cells = test: Validation of ERT2 mutants with mCherry reporter in NK cells; type: cell-based; details: primary NK cells
Description: After 10 days of feeder cell activation, NK cells were co-transduced with ERT2 mutant virus and reporter SB01066 virus (Experimental Set-up 1). On Day 2 after transduction, transduced NK cells were treated with endoxifen or 4-OHT at a range of concentrations of 0 nM, 0.01 nM, 0.1 nM, 1 nM, and 10 nM. On Day 4, cells were checked for mCherry expression by flow cytometry.

[1] = tested on: dimerization of two modified ER-LBDs; test: Transcriptional reporter assay for dimerization activity; type: cell-based; details: data not shown

B1: SB06136: ZF10-1_p65_ERT2 mutant; L384M/L391V/N413D/M421L/S463P/H524L (protein)
chain: AGDMRAANLWPSPLMIKRSKKNSLALSLTADQMVSALLDAEPPILYSEYDPTRPFSEASMMGLLTNLADRELVHMINWAKRVPGFVDLTLHDQVHLLECAWMEILMIGVVWRSMEHPVKLLFAPNLLLDRDQGKCVEGLVEIFDMLLATSSRFRMMNLQGEEFVCLKSIILLNSGVYTFLPSTLKSLEEKDHIHRVLDKITDTLIHLMAKAGLTLQQQHQRLAQLLLILSHIRHMSNKGMELLYSMKCKNVVPLYDLLLEAADAHRLHAPTSRGGASVEETDQSHLATAGSTSSHSLQKYYITGEAEGFPAT
**Q.** Which results are given for B1?
**A.** 4-OHT concentration at which variant was sensitive (mCherry) (NK cells): 0.1 nM; endoxifen concentration at which variant was sensitive (mCherry) (NK cells): 0.1 nM; dimerization of two modified ER-LBDs to 4-OHT [1]: did not directly alter dimerization
